Test results published in patent US5863775A, “Control of parasites” (The University of Leeds, priority 1994, dated 1999).
Where a SMILES comes first, the peptide text is derived from it. [ ]: non-standard residue; d: D form. The star is where a group is joined. Sta = CC(C)C[C@H](N)[C@@H](O)CC(=O)O; Isovaleryl = CC(C)CC(=O)*

Key:
[1] = system: Ascaripain from Ascaris suum; assay: Sensitivity of Ascaripain to protease inhibitors; format: biochemical
Source text: Ascaripain from Ascaris suum is similar to Ascaridia cysteine protease. Both prefer hydrolysis of Z-Phe-Arg-aminomethylcoumarin and both have limited action on Z-Phe-Arg-Arg-aminomethylcoumarin and Bz-Arg-aminomethylcoumarin. […] Pepstatin and serine protease inhibitors have no effect.

[2] = system: Ascaridia galli cysteine protease; assay: Inhibition of cysteine protease fraction from Ascaridia galli; format: biochemical
Ascaridia galli = Ascaridia galli worms held in vitro for 4 days with maize inhibitor
Description: 35 day old Ascaridia were removed from the host and thoroughly rinsed with 0.9% (w/v) NaCl in distilled water before transfer to 3 cm plastic Petri-dishes containing basic culture medium: CaCl2 2H2 O (0.24 mg/ml), Na2 HCO, (0.2 mg/ml), NaCl (9.0 mg/ml) and D-glucose. (1 mg/ml). Streptomycin sulphate (100 mg) and penicillin (60 u) were included to reduce microbial contamination.
Three treatments of five replicates containing 4 worms each were used to assess the potency, of the maize inhibitor. Each treatment was carried out in the basal culture medium supplemented with:
(i) 0.5 mg/ml bovine serum albumin (BSA);
(ii) 0.5 mg/ml maize protein recovered by the batch method of which zeacystatin was estimated to be at 22 μg/ml;
(iii) no supplement to the medium.
The worms were kept for 4 days in the dark at 37° C. and solutions changed daily. Zeacystatin concentration was estimated using a papain inhibition assay as previously and by comparison of the inhibition derived from the batch method with that achieved for the zeacystatin obtained by affinity chromatography earlier.

Caenorhabditis elegans = assay: C. elegans feeding trials on cystatin-supplemented medium; format: in vivo; settings: for larvae that achieved normal development to adulthood: hatched and left to develop on supplemented media; for larvae that completed development: hatched on supplemented media, then transferred to normal media; for mean eggs laid per hermaphrodite: hermaphrodites on supplemented plates, 2.5 mg 1^-1, ten replicates
Description: Caenorhabditis elegans was cultured on NGM agar carrying a lawn of OP50 E. coli as described by Wood (1988). Populations were maintained for 5 days after which time an agar plug from the colony plate was inserted onto fresh media. When required, the Oc-I (see Example 6) or BSA was added to the cooled medium to a final concentration of 2.5 mg 1^-1 just before polymerisation. Single nematodes were transferred from non-supplemented solid agar plates to plates containing Oc-I or BSA.
Feeding trials were set-up using C. elegans to examine the effect of Oc-I on nematode survival and growth. As soon as hermaphrodites became apparent on normal agar they were transferred to individual plates containing either Oc-I or BSA and egg laying was observed. Ten replicates were carried out for each condition.
Subsequently the larvae hatched under normal conditions were removed to media supplemented with either Oc-I or BSA. 50 larvae were removed at 6 h, 12 h, 24 h and 30 h (corresponding to the four larval stages L1, L2, L3 and L4 respectively).
Larvae of C. elegans were transferred to agar plates with E. coli in which the medium was supplemented with 0-10 mg/L of Oc-I and the subsequent mortality of the animals during feeding was estimated from activity of the animals.

[3] = system: RH strain Toxoplasma gondii in MDBK cells; assay: Toxoplasma gondii growth in MDBK cell culture; format: cell-based; settings: 24 hours
Description: Tachyzoites of T. gondii were produced by intraperitoneal passage in Tuck's Number 1 outbred mice, approximately 10^7 parasites are injected intra-peritoneally and parasites for culture were harvested three days later by peritoneal lavage with F12 medium and used immediately.
MDBK cells were plated onto 13 mm cover-slip cultures at a density of 1×10^5 per cover slip and incubated overnight in HAM's F12 medium (GIBCO) plus 10% foetal calf serum at 37° C. Tachyzoites of RH strain Toxoplasma gondii (2×10^6) were loaded onto each cover slip and incubated for 4 hours at 37° C. to allow invasion of the DBK cells. Cultures were then washed with F12 medium to remove extracellular parasites and the inhibitor was added at a concentration of 0, 30 or 120 μg/ml. The cultures were incubated for a further 24 hours at 37° C. and then removed, washed with PBS, fixed with Bouin's solution and stained with Geimsa. Parasite growth was assessed by scoring approximately 200 cells for the number of infected cells and the total number of parasites in the sample.

[4] = 30 h on normal media (L4) before transfer to supplemented media

Molecule: CC(C)C[C@H](NC(=O)[C@H]1O[C@@H]1C(=O)O)C(=O)NCCCCN=C(N)N [E64]
- sensitivity of Ascaripain from Ascaris suum to inhibitor [1]: highly sensitive
- sensitivity of Ascaridia cysteine protease to inhibitor [2]: highly sensitive
- inhibition of proteolytic activity of protease from Ascaridia galli ([2]; 10 μM E64, pre-incubated 20 min at 37° C., Z-Phe-Arg-β-napthylamine, FIG. 6): over 90%

Molecule: CC(C)CC(=O)N[C@H](C(=O)N[C@H](C(=O)N[C@@H](CC(C)C)[C@@H](O)CC(=O)N[C@@H](C)C(=O)N[C@@H](CC(C)C)[C@@H](O)CC(=O)O)C(C)C)C(C)C [Pepstatin] (Isovaleryl-VV[Sta]A[Sta]-OH)
- sensitivity of Ascaripain from Ascaris suum to inhibitor [1]: no effect
- sensitivity of Ascaridia cysteine protease to inhibitor [2]: no effect

Molecule: bovine serum albumin [BSA, reference compound]
- Activity Score of A. galli (Ascaridia galli; 0.5 mg/ml supplement in basic medium (maize protein: zeacystatin estimated 22 μg/ml), 4 days, dark, 37° C., scale 0 (dead) to 3 (frequently active)): 2.75 ± 0.35
- state of worms in culture (Ascaridia galli; 0.5 mg/ml supplement, 4 days at 37° C.): remained active for 4 days
- larvae that achieved normal development to adulthood (Caenorhabditis elegans): 95%
- juveniles developing into adult nematodes (Caenorhabditis elegans; hatched from eggs laid on supplemented media, transferred to normal media): All
- larvae that completed development (Caenorhabditis elegans): 96.0%
- mean eggs laid per hermaphrodite (Caenorhabditis elegans): 300

B1: egg white cystatin: protease inhibitor of cysteine proteases (a cystatin) in chick egg white (protein, UniProt P01038 24-139, looked up)
Cystatin: SEDRSRLLGAPVPVDENDEGLQRALQFAMAEYNRASNDKYSSRVVRVISAKRQLVSGIKYILQVEIGRTTCPKSSGDLQSCEFHDEPEMAKYTTCTFVVYSIPWLNQIKLLESKCQ
- sensitivity of Ascaripain from Ascaris suum to inhibitor [1]: highly sensitive
- sensitivity of Ascaridia cysteine protease to inhibitor [2]: highly sensitive

B2: Oc-I: oryzacystatin I, rice cystatin cloned from Oryza sativa L. japonica, expressed in E. coli with six N-terminal histidine residues (protein, UniProt P09229 27-140, looked up)
Cysteine proteinase inhibitor …: EAHRAGGEGEEKMSSDGGPVLGGVEPVGNENDLHLVDLARFAVTEHNKKANSLLEFEKLVSVKQQVVAGTLYYFTIEVKEGDAKKLYEAKVWEKPWMDFKELQEFKPVDASANA
modifications: N-terminal His6 tag
notes: oryzacystatin I, rice cystatin cloned from Oryza sativa L. japonica, expressed in E. coli with six N-terminal histidine residues
- number parasites/cell ([3]; 30 μg/ml): 6.3 ± 0.63
- % cells infected ([3]; 30 μg/ml, listed as Inhibitor): 66 ± 2%
- % cells infected ([3]; 30 μg/ml, listed as inhibitor): 66±2%
- number parasites/cell ([3]; 120 μg/ml, P<0.05, listed as Inhibitor): 4.2 ± 0.17
- number parasites/cell ([3]; 120 μg/ml, P<0.05, listed as inhibitor): 4.2±0.17
- % cells infected ([3]; 120 μg/ml, listed as Inhibitor): 59 ± 0.6%
- % cells infected ([3]; 120 μg/ml, listed as inhibitor): 59±0.6%
- larvae that did not reach the adult stages (Caenorhabditis elegans; [4]): 24%
- larvae that reached adult male or hermaphrodite stages (Caenorhabditis elegans; [4]): 76%
- eggs hatched (Caenorhabditis elegans; cystatin present in the medium): Greater than 95%
- larvae that achieved normal development to adulthood (Caenorhabditis elegans): less than 2%
- larvae that completed development (Caenorhabditis elegans): 97.0%
- mean eggs laid per hermaphrodite (Caenorhabditis elegans): 300
- recovery of larvae after transfer to fresh unsupplemented media (Caenorhabditis elegans; larvae which failed to develop on Oc-I plates): failed to respond to the fresh food source and showed no signs of further development
- LD50 for mortality of C. elegans larvae (Caenorhabditis elegans; medium supplemented with 0-10 mg/L, probit analysis, FIG. 10): approximately 7 mg OcI per liter of medium
- larvae developing further to the mature adult stages (Caenorhabditis elegans; transferred 6, 12 or 24 h after hatching (L1, L2, L3) to supplemented media): none
